This note sets out measurements from patent US20220282217A1, “COMPOSITIONS AND METHODS FOR PREPARING T CELL COMPOSITIONS AND USES THEREOF” (priority 2019, published 2022).

Usually IC50 stands for the point on the concentration scale where inhibition reaches its midpoint. Lower therefore signals greater potency in that assay.

Experiment [1] deals with HLA-A03.01 (human). The experiment in a line: competition with radiolabeled reference peptide, purified MHC I. Conditions: remark: other sources report otherwise.
Experiment [2] concerns the target HLA-A02.01 (human). The description is as above. The note with it: remark: other sources report otherwise.
Experiment [3] concerns the target HLA-B07:02 class I MHC molecule (human). The experiment in a line: competition with a radiolabeled reference peptide for purified MHC I, gel filtration; 'Affinity (nM)'. Conditions: remark: other sources report otherwise. (In gel filtration, larger molecules generally elute earlier.)
Experiment [4] has as its target HLA-A02:01 class I MHC molecule (human). The description is as above. The note with it: remark: other sources report otherwise.
Experiment [5] concerns the target HLA-B07:02 class I MHC molecule (human). Briefly: pMHC-I dissociation at 37 C, 125I-labeled b2m, scintillation counts. The note with it: remark: other sources report otherwise.
Experiment [6] deals with HLA-A02:01 class I MHC molecule (human). The description is as above. The note with it: remark: other sources report otherwise.
In experiment [7] the target is HLA-B08.01 (human). The experiment in a line: competition with radiolabeled reference peptide, purified MHC I.
Experiment [8] addresses T1, HLA-B07.02 class I MHC molecule (prepared complex) (human). The experiment in a line: displacement of radiolabeled reference peptide from class I MHC, gel filtration; 'Affinity (nM)'. The note with it: remark: other sources report otherwise.
Experiment [9] concerns the target T2, HLA-A02.01 class I MHC molecule (prepared complex) (human). The experiment is described as above. The note with it: remark: other sources report otherwise.
The target of experiment [10] is T1, HLA-B07.02 class I MHC molecule …. Briefly: dissociation of peptide-MHC-I complex at 37 C, 125I-labelled b2m, scintillation. The note with it: remark: other sources report otherwise.
Experiment [11] addresses T2, HLA-A02.01 class I MHC molecule …. The experiment is described as above. The note with it: remark: other sources report otherwise.
The target in experiment [12] is HLA-A01.01 (human). The experiment in a line: competition vs radiolabeled reference peptide on purified MHC I, gel filtration. The note with it: remark: other sources report otherwise.
In experiment [13] the target is HLA-A01.01 (human). Briefly: competition with radiolabeled reference peptide, purified MHC I. Conditions: remark: other sources report otherwise.
For experiment [14], the target named is HLA-A02.01 (human). The experiment in a line: pMHC-I dissociation half-life, 125I-b2m. Conditions: remark: other sources report otherwise.
The target of experiment [15] is HLA-A01.01 (human). Briefly: pMHC-I dissociation half-life, 125I-b2m. Conditions: remark: other sources report otherwise.
The target in experiment [16] is T3, HLA-A01.01 class I MHC molecule (prepared complex) (human). Briefly: displacement of radiolabeled reference peptide from class I MHC, gel filtration; 'Affinity (nM)'. Conditions: remark: other sources report otherwise.
The target of experiment [17] is T3, HLA-A01.01 class I MHC molecule …. Briefly: dissociation of peptide-MHC-I complex at 37 C, 125I-labelled b2m, scintillation. Conditions: remark: other sources report otherwise.
In experiment [18] the target is HLA-A02.01 (human). Briefly: competition vs radiolabeled reference peptide on purified MHC I, gel filtration. Conditions: remark: other sources report otherwise.
Experiment [19] has as its target HLA-A02.01 (human). Briefly: pMHC-I complex dissociation at 37 C, 125I-b2m, half-life. The note with it: remark: other sources report otherwise.
In experiment [20] the target is HLA-A01.01 (human). The experiment is described as above. The note with it: remark: other sources report otherwise.
Experiment [21] concerns the target HLA-B07.02 (human). The experiment in a line: competition with radiolabeled reference peptide, purified MHC I. The note with it: remark: other sources report otherwise.
Experiment [22] concerns the target HLA-B07.02 (human). Briefly: pMHC-I dissociation half-life, 125I-b2m. Conditions: remark: other sources report otherwise.
Experiment [23] deals with T4, HLA-A24.02 class I MHC molecule (prepared complex) (human). The experiment in a line: displacement of radiolabeled reference peptide from class I MHC, gel filtration; 'Affinity (nM)'. Conditions: remark: other sources report otherwise.
The target of experiment [24] is T4, HLA-A24.02 class I MHC molecule …. The experiment in a line: dissociation of peptide-MHC-I complex at 37 C, 125I-labelled b2m, scintillation. Conditions: remark: other sources report otherwise.

Regarding MLLRLNLRKM, the IC50 is 117 nM in experiment [1] and 2510 nM in experiment [2].
As to SLLNYLREM, the IC50 in [3] is 866 nM; in experiment [4], 67.7 nM. The Stability (half-life (hr.)) in experiment [5] came to 0 h; in experiment [6], 183 min.
LKKLRSPL gave an IC50 in experiment [7] of 0.6 nM.
Regarding MANGSLLNYL, the IC50 in [4] worked out at 1010 nM. Moreover, the Stability (half-life (hr.)) turned out to be 0 h in experiment [5] and 0 min in experiment [6].
As to YMANGSLLN, in experiment [4], the concentration for half-maximal inhibition (IC50) came to 4000 nM. In experiment [6], this molecule yielded a Stability (half-life (hr.)) of 0 min.
MQLMPFGCL: the concentration for half-maximal inhibition (IC50) in experiment [8] was 1590 nM; in [9] it was 116 nM. The Stability (half-life (hr.)) in [10] is 0 h; in experiment [11] it was 22.1 min.
In experiment [12], LTSTVQLIM displayed an IC50 of 2890 nM.
Consider WMTETLFDIV, for which the IC50 in [2] amounted to 40 nM; in experiment [13], 14400 nM. The Stability (T1/2 (h)) was found to be 0.4 h in [14] and 0 h in experiment [15].
In turn, LTSTVQLIM [EGFR, T790M peptide …] showed an IC50 in [16] of 2890 nM. In experiment [17], the Stability (half-life (hr.)) came out at 6.22 min.
With CLTSTVQLIM […, listing 1 of 2 here], the 50% inhibitory concentration (IC50) in experiment [18] is 716 nM. Besides, the Stability (T1/2 (h)) in [19] and in experiment [20] was 0 h each time.
For the molecule LPRKPTRAA, the IC50 in [21] worked out at 8 nM. For the same molecule, the Stability (T1/2 (h)) in experiment [22] was found to be 5.5 h.
In turn, MLTDSLFLPI displayed an IC50 in experiment [13] of 7670 nM. Moreover, the Stability (T1/2 (h)) was determined as 1 h in experiment [14] and 0 h in [15].
For the molecule VQLIMQLMPF, the values for the IC50 in experiment [23] and in [9] were 4100 nM and 4940 nM, respectively. In addition, the values for the Stability (half-life (hr.)) in [24] and in experiment [11] were 0 h and 0 min, respectively.
As to CLTSTVQLIM [EGFR_T790M peptide …, listing 2 of 2 here], the concentration for half-maximal inhibition (IC50) stood at 8280 nM in [16] and 537 nM in experiment [9]. Moreover, the Stability (half-life (hr.)) in [17] and in experiment [11] was 0 min in each case.
As to MQLMPFGCLL, the IC50 in experiment [23] came out at 18900 nM; in [9], 16.3 nM. For the same molecule, the Stability (half-life (hr.)) is 0 h in [24] and 22.9 min in [11].
For IMQLMPFGCL the same measures were 14100 nM, 653 nM, 0 h and 30.9 min.
